Measurements taken from patent publication WO2016073157A1 (dated 2016).
Numbering of substitutions follows the chain as printed. Names may count otherwise.

T1: human Fc fusion of Ang2 protein (human, UniProt O15123 275-496, limits assumed)
T1 construct: Captured by anti-human Fc on the CM5 chip; also called hAng2 (SPR flow cell); not shown: human Fc
T1 sequence (looked up): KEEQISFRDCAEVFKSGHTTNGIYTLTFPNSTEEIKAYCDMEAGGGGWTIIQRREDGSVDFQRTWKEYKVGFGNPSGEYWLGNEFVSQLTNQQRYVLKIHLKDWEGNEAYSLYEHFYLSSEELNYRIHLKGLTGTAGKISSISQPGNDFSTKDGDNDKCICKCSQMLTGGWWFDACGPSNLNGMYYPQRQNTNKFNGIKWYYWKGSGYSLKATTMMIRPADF

T2: hVEGF109 (human, UniProt P15692-4 34-135, limits assumed)
T2 construct: Numbers count on the mature 165-amino acid VEGF, not on the precursor; also called human VEGF (hVEGF 109)
T2 sequence (looked up): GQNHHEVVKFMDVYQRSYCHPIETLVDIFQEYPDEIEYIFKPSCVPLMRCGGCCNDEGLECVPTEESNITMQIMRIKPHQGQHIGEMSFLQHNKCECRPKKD

T3: His-tagged human Ang2 (hAng2his8) (human, UniProt O15123 19-496, limits assumed)
T3 construct: neither is tied to this construct; not shown: His tag (his8)
T3 sequence (looked up): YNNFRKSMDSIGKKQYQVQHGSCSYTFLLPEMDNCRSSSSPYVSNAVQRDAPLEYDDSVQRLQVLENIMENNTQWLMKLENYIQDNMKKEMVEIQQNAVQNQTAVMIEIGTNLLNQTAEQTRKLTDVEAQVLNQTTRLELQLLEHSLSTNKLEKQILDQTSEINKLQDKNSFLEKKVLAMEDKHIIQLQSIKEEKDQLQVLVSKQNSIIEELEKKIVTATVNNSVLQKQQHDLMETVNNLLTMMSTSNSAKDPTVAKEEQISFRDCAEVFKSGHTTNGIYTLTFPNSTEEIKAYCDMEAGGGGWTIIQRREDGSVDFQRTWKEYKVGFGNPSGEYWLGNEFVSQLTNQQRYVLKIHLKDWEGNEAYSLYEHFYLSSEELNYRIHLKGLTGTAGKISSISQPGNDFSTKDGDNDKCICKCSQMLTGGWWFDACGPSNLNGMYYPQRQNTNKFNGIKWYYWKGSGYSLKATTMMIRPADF

B1: 5A12 4.2 LC.Q89H/LC.L93K ("D") (Fab, V domains shown)
VH: EVQLVESGGGLVQPGGSLRLSCAASGFTISDYWIHWVRQAPGKGLEWVAGITPAGGYTYYADSVKGRFTISADTSKNTAYLQMNSLRAEDTAVYYCARFVFFLPYAMDYWGQGTLVTVSS
VL: DIQMTQSPSSLSASVGDRVTITCRASQFLSSFGVAWYQQKPGKAPKLLIYGASSLYSGVPSRFSGSGSGTDFTLTISSLQPEDFATYYCHQGLKSPLTFGQGTKVEIK
notes: 5A12 4.2 variant; Fab on phage in the IC50 assay, purified Fab in SPR
B2: 5A12 4.2 (Fab, V domains shown)
VH: B1 VH
VL: B1 VL with H90Q, K94L
notes: also called Fab5A12 4.2
B3: 5A12 4.2 LC.Q89H (Fab, V domains shown)
VH: B1 VH
VL: B1 VL with K94L
notes: 5A12 4.2 variant; Fab on phage in the IC50 assay; also called LC-89H
B4: 5A12 4.2 LC.L92S (Fab, V domains shown)
VH: B1 VH
VL: B1 VL with H90Q, L93S, K94L
notes: 5A12 4.2 variant; Fab on phage in the IC50 assay; also called LC-92S
B5: 5A12 4.2 LC.L93K (Fab, V domains shown)
VH: B1 VH
VL: B1 VL with H90Q
notes: 5A12 4.2 variant; Fab on phage in the IC50 assay; also called LC-93K
B6: 5A12 4.2 LC.A34N (Fab, V domains shown)
VH: B1 VH
VL: B1 VL with A35N, H90Q, K94L
notes: 5A12 4.2 variant; Fab on phage in the IC50 assay; also called LC-34N
B7: 5A12 4.2 LC.Q89W (Fab, V domains shown)
VH: B1 VH
VL: B1 VL with H90W, K94L
notes: 5A12 4.2 variant; Fab on phage in the IC50 assay; also called LC-89W
B8: 5A12 4.2.16.2 (Fab, V domains shown)
VH: B1 VH with H35Y, T58E, A106V
VL: B1 VL with A35G, H90W, K94L
notes: purified Fab as analyte in SPR; also called DAF16.2

How the values were obtained:
[1] = target: T1, human Fc fusion of Ang2 protein; test: BIACORE T200 SPR, human Fc fusion of Ang2 captured by anti-human Fc, Fab as analyte, Ang2 inferred
hVEGF109 [2] = target: T2, hVEGF109; test: BIACORE T200 SPR, hVEGF109 coupled to CM5 chip, Fab as analyte, VEGF inferred
hVEGF109 [3] = target: T2, hVEGF109; test: phage competition ELISA (phage IC50), hVEGF109 in solution and on the plate, VEGF inferred
hVEGF109 [4] = target: T2, hVEGF109; test: BIACORE SPR at 25 C; hVEGF109 immobilized on CM5 chip, variant clone as analyte (monovalent affinity)
hVEGF109 [5] = target: T2, hVEGF109; test: BIACORE SPR at 25 C; hVEGF109 immobilized on CM5 chip, Fab as analyte (monovalent affinity)
[6] = target: T3, His-tagged human Ang2 (hAng2his8); test: BIACORE SPR at 25 C; hAng2his8 immobilized on CM5 chip, Fab as analyte (monovalent affinity)

Row | Binder | IC50 (hVEGF109 [3]) | other results
1 | B1 | 3.71 nM | Kd [1]: 0.259 nM; Kd (hVEGF109 [2]): 0.675 nM
2 | B2 |  | apparent Kd (pooled screen) (hVEGF109 [4]): 5 nM
3 | B3 | 0.138 nM | 
4 | B4 | 27.7 nM | 
5 | B5 | 0.48 nM | 
6 | B6 | 221 nM | 
7 | B7 | 2.55 nM | 
8 | B8 |  | Kd (hVEGF109 [5]): < 0.003 nM; Kd [6]: 1.51 nM
